The target in assay [1] is T1, CEACAM1 antigen (Diatheva) (UniProt P13688 35-428, limits assumed).
T1 construct: Purchased antigen; also called CEA Cell Adhesion Molecule 1
T1 sequence (looked up): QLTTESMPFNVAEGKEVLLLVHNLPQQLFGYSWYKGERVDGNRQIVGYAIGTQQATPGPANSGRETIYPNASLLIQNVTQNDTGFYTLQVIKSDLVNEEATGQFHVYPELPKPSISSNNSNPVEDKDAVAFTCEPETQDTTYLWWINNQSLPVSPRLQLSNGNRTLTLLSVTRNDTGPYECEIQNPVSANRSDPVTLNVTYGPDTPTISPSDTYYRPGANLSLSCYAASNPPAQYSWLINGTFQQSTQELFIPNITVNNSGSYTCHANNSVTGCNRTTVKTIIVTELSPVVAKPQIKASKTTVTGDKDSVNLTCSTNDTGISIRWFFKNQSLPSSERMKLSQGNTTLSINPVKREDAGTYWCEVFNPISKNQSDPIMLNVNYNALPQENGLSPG
Put plainly: ELISA titration on coated CEACAM1; antibody from stable clone 12. Here is the method: (§1) 96 wells microtiter plates (MAXISORB NUNC) were coated with 100 μl/well of CEACAM1 antigen (Diatheva) solution 1 μg/ml diluted in PBS pH 7.3 and incubated overnight (ON) at 37° C. Plates were washed five times with PBS added with 0.05% (v/v) Tween 20 pH 7.3 (PBST) (the same washing procedure was repeated after each incubation step during the assays) and then blocked with 1% (w/v) BSA dissolved in PBS (150 μl/well) and maintained at 37° C. for 60 min. After washing, serial dilutions of IgG1 or IgG4 in PBS containing 2% (w/v) not-fat dry milk (PBSM) were added to the plate (100 μl/well) and incubated for 90 min at 37° C. After washes, plates were incubated at 37° C. for 60 min with an anti-human Fc antibody HRP conjugated (Meridian) diluted 1:500 v/v in PBSM. Finally, the detection was performed after addition of 2,2′-azino-bis(3-ethylbenzthiazoline-6-sulphonic acid) (ABTS; Roche, 10102946001) as substrate. The absorbance values were read by a microplate reader (Bio-Rad Laboratories) at 405 nm after 45 min. In FIG. 4 are reported the results obtained with IgG1 (black line) and IgG4 (grey line) antibodies purified after transient expression in HEK293T cells. The absorbance of the mock sample is shown by the dotted line. […]
Background: ELISA stands for enzyme-linked immunosorbent assay.

The target in assay [2] is T1, CEACAM1 antigen (Diatheva). Put plainly: ELISA titration on coated CEACAM1; antibody purified after transient expression in HEK293T. Here is the method:
Purified antibodies were analysed for their reactivity against CEACAM1 antigen in ELISA titration assay as follow:
as §1

The target of assay [3] is T1, CEACAM1 antigen (Diatheva). As to the kind of experiment: ELISA titration on coated CEACAM1; detection with anti-His6 and anti-mouse HRP. On the procedure: as §1, with “After washes, plates were incubated at 37° C. for 60 min with an anti-human Fc antibody HRP conjugated (Meridian) diluted 1:500 v/v in PBSM.” left out, “line. The ELISA assay highlighted a higher affinity for the CEACAM1 antigen of the antibody belonging to the IgG1 subclass compared to the same antibody with the IgG4 (S228P) constant region.” for “line.”

Assay [4] has as its target T1, CEACAM1 antigen (Diatheva). Put plainly: ELISA titration on coated CEACAM1; EC50 of the scFv against that of IgG4 clone 2.
Assay [5] addresses T1, CEACAM1 antigen (Diatheva). Put plainly: ELISA titration on coated CEACAM1; EC50 of the scFv against that of IgG1 clone 12.
Assay [6] addresses T1, CEACAM1 antigen (Diatheva). Put plainly: ELISA titration on coated CEACAM1; antibody from stable clone 2. On the procedure: as §1, with “4 are reported the results obtained with IgG1 (black line) and IgG4 (grey line) antibodies purified after transient expression in HEK293T cells.” left out, “line. The ELISA assay highlighted a higher affinity for the CEACAM1 antigen of the antibody belonging to the IgG1 subclass compared to the same antibody with the IgG4 (S228P) constant region.” for “line.”

The text below walks through data of patent US20250340633A1 (DIATHEVA S R L, published 2025).

B1: DIA-12.3 IgG1 (antibody)
heavy: not shown
light: SELTQDPAVSVALGQTVRITCQGDSLRSSYASWYRQRPGQAPVPVIYGKNNRPSGIPDRFSGSSSGNTASLTITGAQAEDEADYYCNSSYAWLPYVVFGGGTKLTVLGGQPKANPTVTLFPPSSEELQANKATLVCLISDFYPGAVTVAWKADGSPVKAGVETTKPSKQSNNKYAASSYLSLTPEQWKSHRSYSCQVTHEGSTVEKTVAPTECS
notes: The preparation is named under assay in each row; also called IgG1 anti-CEACAM1 mAb; IgG1 clone 12
In general, EC50 refers to the concentration at which the effect is half-maximal. High values mean a need for much substance, low ones an effect from little substance. As for B1, the EC50 was found to be 1.27 mg/L in assay [1] and 12.8 mg/L in assay [2].

B2: scFvDIATHIS-1 (scFv, V domains shown)
VH: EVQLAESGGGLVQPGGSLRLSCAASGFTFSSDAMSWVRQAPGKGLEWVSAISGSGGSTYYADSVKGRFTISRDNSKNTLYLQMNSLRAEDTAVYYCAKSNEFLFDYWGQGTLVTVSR
VL: SELTQDPAVSVALGQTVRITCQGDSLRSSYASWYRQRPGQAPVPVIYGKNNRPSGIPDRFSGSSSGNTASLTITGAQAEDEADYYCNSSYAWLPYVVFGGGTKLTVLG
notes: Single-chain fragment described in WO2011160859A1; Detection with an anti-His6 antibody implies a His6 tag
B2 yielded an EC50 in assay [3] of 4.16 mg/L. Besides, in assay [4], the “fold of EC50 against IgG4” value was approximately 2 fold. The “fold of EC50 against IgG1” value in assay [5] is approximately 4 fold.

B3: IgG4 (S228P) anti-CEACAM1 mAb (antibody, not shown: large carriers)
heavy: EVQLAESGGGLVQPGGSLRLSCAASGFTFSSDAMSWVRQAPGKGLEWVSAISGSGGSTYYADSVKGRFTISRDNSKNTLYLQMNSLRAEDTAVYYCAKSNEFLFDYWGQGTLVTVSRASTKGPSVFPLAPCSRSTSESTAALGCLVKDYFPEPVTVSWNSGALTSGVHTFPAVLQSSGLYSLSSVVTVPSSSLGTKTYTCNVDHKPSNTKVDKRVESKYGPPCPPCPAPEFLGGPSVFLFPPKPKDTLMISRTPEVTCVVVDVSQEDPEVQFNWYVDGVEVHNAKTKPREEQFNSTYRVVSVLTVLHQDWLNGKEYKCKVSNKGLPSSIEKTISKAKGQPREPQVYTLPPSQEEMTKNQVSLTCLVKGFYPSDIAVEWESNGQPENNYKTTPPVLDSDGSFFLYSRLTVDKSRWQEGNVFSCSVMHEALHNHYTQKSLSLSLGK
light: B2 VL
notes: also called IgG4 clone 2
Take B3: the EC50 in assay [6] stood at 2.55 mg/L; in assay [2] it was 26.7 mg/L.
